In general, stoichiometry N refers to a count of units in the complex or per binding partner.

The experiment addresses His6-tagged rat SLFN13 N′-domain, residues 14–353 (crystallised rSLFN13_(14–353)) (rat) (UniProt Q5U311). Kind of experiment: right-angle light scattering (RALS) of eluted protein; purified protein in solution; elution with RALS detection; conditions not shown (Supplementary Fig. 2a).

“His6-tagged rat SLFN13 N′-domain, residues 14–353 (crystallised rSLFN13_(14–353)) (from UniProt Q5U311 14-353) (domain or fragment)” showed a stoichiometry N of 2.

The values are drawn from publication PMC5862951.
